Source: PMC8464063, “The bacterial iron sensor IdeR recognizes its DNA targets by indirect readout”
Blank lines part the entries; values can stand above or below the molecule they belong to.

What was measured:
[1] = target: Saccharopolyspora erythraea iron-dependent regulator IdeR, wild type (Saccharopolyspora erythraea); experiment: crystal structure; Co2+-activated IdeR WT without DNA; 12 mg/ml protein with 1 mM CoCl2 and 0.3 mg/ml trypsin before crystallisation; 25% PEG 1500, 20°C; space group P1, one IdeR dimer in the asymmetric unit
[2] = target: Saccharopolyspora erythraea iron-dependent regulator IdeR, wild type (Saccharopolyspora erythraea); experiment: crystal structure; IdeR (WT, Q43A or P39G) with 1 mM CoCl2 or Fe(NH4)2(SO4)2 and 150 uM 30-bp double-stranded DNA (consensus or C10S1); space group C2, two IdeR dimers and one DNA duplex in the asymmetric unit
[3] = target: Saccharopolyspora erythraea IdeR P39G variant (Saccharopolyspora erythraea); experiment: as above
[4] = target: Saccharopolyspora erythraea IdeR Q43A variant (Saccharopolyspora erythraea); experiment: as above
IdeR WT [5] = target: T1, IdeR WT (Saccharopolyspora erythraea DSM 40517, UniProt A0ABF7PL34 1-231); experiment: EMSA; 30 uM Co2+; up to 22.5 uM dimer; EMSA: 15 mM Tris-acetate pH 7.3, 4 mM K-acetate, 10% glycerol, 17 ng/ul poly(dI-dC), 30 nM DNA, 30 uM Co2+, IdeR 15 nM-2.25 uM dimer, 20 min room temperature; 4% native gel at 4 C; settings: protein: recombinant, tags: N-terminal His6 removed by TEV, Gly-His remains before Met1, chain copies: 4, blunt
IdeR WT [6] = target: T1, IdeR WT; experiment: EMSA; 30 uM Co2+; EMSA: 15 mM Tris-acetate pH 7.3, 4 mM K-acetate, 10% glycerol, 17 ng/ul poly(dI-dC), 30 nM DNA, 30 uM Co2+, IdeR 15 nM-2.25 uM dimer, 20 min room temperature; 4% native gel at 4 C; settings: protein: recombinant, tags: N-terminal His6 removed by TEV, Gly-His remains before Met1, chain copies: 4, blunt
IdeR Q43A = IdeR Q43A (Saccharopolyspora erythraea DSM 40517, UniProt A0ABF7PL34 1-231, Q43A); experiment: as above; settings: protein: recombinant; tags: N-terminal His6 removed by TEV; Gly-His remains before Met1; chain copies: 4; label: 5' Cy5 or 5' FAM on strand 1; blunt
IdeR P39G [7] = target: T2, IdeR P39G (Saccharopolyspora erythraea DSM 40517, UniProt A0ABF7PL34 1-231, P39G); experiment: as above; settings: protein: recombinant; tags: N-terminal His6 removed by TEV; Gly-His remains before Met1; chain copies: 4; label: 5' Cy5 or 5' FAM on strand 1; blunt
IdeR WT [8] = target: T1, IdeR WT; experiment: EMSA; 30 uM Co2+; one dimer bound; EMSA: 15 mM Tris-acetate pH 7.3, 4 mM K-acetate, 10% glycerol, 17 ng/ul poly(dI-dC), 30 nM DNA, 30 uM Co2+, IdeR 15 nM-2.25 uM dimer, 20 min room temperature; 4% native gel at 4 C; settings: protein: recombinant; tags: N-terminal His6 removed by TEV; Gly-His remains before Met1; chain copies: 4; label: 5' Cy5 on strand 1; blunt
IdeR WT [9] = target: T1, IdeR WT; experiment: X-ray crystallography; Fe2+; two dimers per duplex; EMSA: 15 mM Tris-acetate pH 7.3, 4 mM K-acetate, 10% glycerol, 17 ng/ul poly(dI-dC), 30 nM DNA, 30 uM Co2+, IdeR 15 nM-2.25 uM dimer, 20 min room temperature; 4% native gel at 4 C; settings: protein: recombinant; tags: N-terminal His6 removed by TEV; Gly-His remains before Met1; chain copies: 4; blunt
IdeR P39G [10] = target: T2, IdeR P39G; experiment: X-ray crystallography; Co2+; two dimers per duplex; EMSA: 15 mM Tris-acetate pH 7.3, 4 mM K-acetate, 10% glycerol, 17 ng/ul poly(dI-dC), 30 nM DNA, 30 uM Co2+, IdeR 15 nM-2.25 uM dimer, 20 min room temperature; 4% native gel at 4 C; settings: protein: recombinant; tags: N-terminal His6 removed by TEV; Gly-His remains before Met1; chain copies: 4; blunt

stoichiometry N [1]: 2 | stoichiometry N [2]: 2
Molecule: Saccharopolyspora erythraea iron-dependent regulator IdeR, wild type (natural protein)

stoichiometry N [3]: 2
Molecule: Saccharopolyspora erythraea IdeR P39G variant (natural protein)

stoichiometry N [4]: 2
Molecule: Saccharopolyspora erythraea IdeR Q43A variant (natural protein)

B1: Minimal_CNTNN (dsDNA)
DNA 1: CGTACGCACGCGATGCTCGCATCCGTACG
DNA 2: CGTACGGATGCGAGCATCGCGTGCGTACG
binding result (IdeR WT [5]; label: 5' Cy5 on strand 1): no binding

B2: Consensus_Full (dsDNA)
DNA 1: CGTACTTAGGTTAGGCTAACCTAAGTACG
DNA 2: CGTACTTAGGTTAGCCTAACCTAAGTACG
Kd (IdeR WT [6]; label: 5' Cy5 or 5' FAM on strand 1): ~45 nM | Kd (IdeR Q43A): ~65 nM | Kd (IdeR P39G [7]): ~264 nM

B3: Consensus_A4A5-S4S5 (dsDNA)
DNA 1: CGTACGCAGGCGAGGCTCGCCTGCGTACG
DNA 2: CGTACGCAGGCGAGCCTCGCCTGCGTACG
Kd (IdeR WT [6]; label: 5' Cy5 on strand 1): ~128 nM

B4: C10S1 (dsDNA)
DNA 1: CGTACTTTGGTAAAGCTAACCTAAGTCACC
DNA 2: GGTGACTTAGGTTAGCTTTACCAAAGTACG
Kd (IdeR WT [6]; label: 5' FAM on strand 1): ~116 nM

B5: Consensus_C1C2-T1T2 (dsDNA)
DNA 1: CGTACTTAAATTAAATTAATTTAAGTACG
DNA 2: CGTACTTAAATTAATTTAATTTAAGTACG
binding result (IdeR WT [5]; label: 5' Cy5 on strand 1): no binding

B6: C23S1 (dsDNA)
DNA 1: AGTCATAAAGTTAGGTTCGCCTCACTACT
DNA 2: AGTAGTGAGGCGAACCTAACTTTATGACT
Kd (IdeR WT [8]): ~102 nM

B7: C10S2 (dsDNA)
DNA 1: GATGCTTAGGTTAGCCTACCCGACGCTGA
DNA 2: TCAGCGTCGGGTAGGCTAACCTAAGCATC
Kd (IdeR WT [6]; label: 5' Cy5 on strand 1): ~94 nM

B8: Half site (dsDNA)
DNA 1: CGTACCCGGTTTAGGGCCACCTAAGTACG
DNA 2: CGTACTTAGGTGGCCCTAAACCGGGTACG
Kd (IdeR WT [8]): ~78 nM

B9: Consensus_C1-T1 (dsDNA)
DNA 1: CGTACTTAGATTAGACTAATCTAAGTACG
DNA 2: CGTACTTAGATTAGTCTAATCTAAGTACG
Kd (IdeR WT [6]; label: 5' Cy5 on strand 1): ~70 nM

B10: Consensus_T3-G3 (dsDNA)
DNA 1: CGTACTTCGGTTCGGCGAACCGAAGTACG
DNA 2: CGTACTTCGGTTCGCCGAACCGAAGTACG
binding result (IdeR WT [5]; label: 5' Cy5 on strand 1): no binding

B11: Consensus_C2-T2 (dsDNA)
DNA 1: CGTACTTAAGTTAAGTTAACTTAAGTCACG
DNA 2: CGTGACTTAAGTTAACTTAACTTAAGTACG
Kd (IdeR WT [6]; label: 5' FAM on strand 1): ~105 nM

B12: Minimal_NCTNN (dsDNA)
DNA 1: CGTACGCAGACGAGACTCGTCTGCGCTACG
DNA 2: CGTAGCGCAGACGAGTCTCGTCTGCGTACG
binding result (IdeR WT [5]; label: 5' FAM on strand 1): no binding

B13: Cons_long (crystal) (dsDNA)
DNA 1: CGTACTTAGGTTAGGCTAACCTAAGTCACG
DNA 2: CGTGACTTAGGTTAGCCTAACCTAAGTACG
binding result (IdeR WT [9]): binds | binding result (IdeR P39G [10]): binds
